Substitutions are numbered along the chain they refer to.
T1: extracellular domain (ECD) of recombinant human Sortilin with a C-terminal HIS tag (ECD-huSortilin-HIS) (human, UniProt Q99523 78-755)
T1 construct: Bought (R&D Systems); also called human sortilin-ECD; not shown: C-terminal HIS tag
T1 sequence: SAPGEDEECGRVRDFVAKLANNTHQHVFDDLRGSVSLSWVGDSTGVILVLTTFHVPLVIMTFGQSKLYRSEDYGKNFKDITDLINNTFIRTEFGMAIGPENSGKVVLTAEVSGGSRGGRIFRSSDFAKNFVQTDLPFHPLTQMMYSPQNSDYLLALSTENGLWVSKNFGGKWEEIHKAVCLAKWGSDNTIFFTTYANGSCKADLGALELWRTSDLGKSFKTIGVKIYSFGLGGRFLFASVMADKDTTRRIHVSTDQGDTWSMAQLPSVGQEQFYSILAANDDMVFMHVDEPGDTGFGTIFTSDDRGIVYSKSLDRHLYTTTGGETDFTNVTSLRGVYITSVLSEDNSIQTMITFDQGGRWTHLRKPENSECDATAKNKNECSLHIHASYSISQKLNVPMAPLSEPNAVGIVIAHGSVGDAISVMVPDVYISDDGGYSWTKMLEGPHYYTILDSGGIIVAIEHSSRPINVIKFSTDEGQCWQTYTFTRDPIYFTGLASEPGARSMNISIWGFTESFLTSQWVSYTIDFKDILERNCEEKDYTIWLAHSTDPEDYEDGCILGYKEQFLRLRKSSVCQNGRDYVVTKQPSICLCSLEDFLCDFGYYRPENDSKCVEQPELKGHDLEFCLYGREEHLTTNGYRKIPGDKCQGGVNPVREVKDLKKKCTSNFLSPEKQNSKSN

T2: human sortilin on the cell surface (recombinant huSortilin on HEK 293 cells; endogenous on U251MG cells) (human, UniProt Q99523 78-831)
T2 construct: whole, on cells; also called huSortilin expressing HEK293 cells; cell surface huSortilin
T2 sequence (looked up): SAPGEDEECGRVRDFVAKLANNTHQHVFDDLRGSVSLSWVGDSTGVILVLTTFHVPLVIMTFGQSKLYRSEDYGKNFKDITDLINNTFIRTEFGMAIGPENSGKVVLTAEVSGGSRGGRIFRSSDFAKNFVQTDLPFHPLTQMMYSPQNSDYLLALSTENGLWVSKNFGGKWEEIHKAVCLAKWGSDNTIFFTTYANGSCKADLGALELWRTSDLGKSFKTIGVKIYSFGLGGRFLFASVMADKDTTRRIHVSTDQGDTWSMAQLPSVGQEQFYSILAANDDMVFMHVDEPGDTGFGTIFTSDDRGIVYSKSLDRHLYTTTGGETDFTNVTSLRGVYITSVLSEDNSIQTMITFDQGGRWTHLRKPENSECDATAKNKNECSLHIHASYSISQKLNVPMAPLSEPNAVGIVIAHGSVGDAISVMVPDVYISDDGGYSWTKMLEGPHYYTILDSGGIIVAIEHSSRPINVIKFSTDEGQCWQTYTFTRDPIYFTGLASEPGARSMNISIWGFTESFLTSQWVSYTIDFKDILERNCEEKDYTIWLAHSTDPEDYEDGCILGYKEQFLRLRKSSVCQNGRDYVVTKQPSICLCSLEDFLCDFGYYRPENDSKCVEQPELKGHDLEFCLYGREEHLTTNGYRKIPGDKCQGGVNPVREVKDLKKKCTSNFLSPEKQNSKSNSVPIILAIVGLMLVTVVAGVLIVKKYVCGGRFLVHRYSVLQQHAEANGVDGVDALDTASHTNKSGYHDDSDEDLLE

T3: sortilin array peptides with the consensus motif RTEFGMAIGP (human, not fully specified; array peptides cyclized via a thioether linkage between a C-terminal cysteine and a modified N-terminus)
T3 construct: Consensus motif of overlapping 7, 10 and 13 amino acid conformational microarray peptides
T3 peptide: RTEFGMAIGP

B1: mouse monoclonal antibody 5M13 (antibody, mouse IgG1, V domains shown)
VH: DVQLQESGPGLVKPSQSLSLTCTVTGYSITSDYAWNWIRQFPGNKLEWMGYISSSGSTSYNPSLKSRISVTRDTSKNQFFLQLNFVTAEDTATYYCAFVTTTMDYWGQGTSVTVSS
VL: DVVMTQTPLSLPVSLGDQASISCRSSQSLVHSNGNTYLHWYLQKPGQSPKLLIYTVSNRFSGVPDRFSGSGSGTDFTLKISRVEAEDLGVYFCSQSTHVPFTFGSGTKLEIK
notes: mouse IgG1, kappa
B2: mouse monoclonal antibody 5E20 (antibody, mouse IgG1, V domains shown)
VH: EVQLVESGGDLVKPGGSLKLSCAAPGFTFSTYGMSWVRQTPDKRLEWVAIISSGGSYTYYSDTVKGRFTISRDNAKNTLYLQMSSLKSEDTAMYYCSRSSSHWYFDVWGTGTTVTVSS
VL: DILMTQSPSSMSVSLGDTVSITCHASQGISSNIGWLQQKPGKSFKGLIYHGTNLKDGVPSRFSGSGSGADFSLTISSLESEDFADYFCVQYAQFPYTFGGGTKLEKR
notes: mouse IgG1, kappa; also called ms5E20; ms5E20new
B3: mouse monoclonal antibody 6B15 (antibody, mouse IgG1, V domains shown)
VH: B2 VH with Y80N, Y95F
VL: B2 VL with S7F, A69T, F87Y
notes: mouse IgG1, kappa
B4: mouse monoclonal antibody 11M14 (antibody, mouse IgG1, V domains shown)
VH: EVQLVESGGDLVKPGGSLKLSCAASGFTFNIYGMSWVRQTPDKRLEWVATISSGGIYTYYPDILKGRFTISRDNAKNTLYLQMSSLKSEDTAMYYCARHPGGAMDYWGQGTSVTVSS
VL: DIQMTQSPASLSVSVGETVTITCRVSENIYSNLAWYQQKQGKSPHLLVYAATNLADGVPSRFSGSGSGTQYSLKINSLQSEDFGSYYCQHFWGTPPWTFGGGTKLEIK
notes: mouse IgG1, kappa; also called ms11M14
B5: mouse monoclonal antibody 2F18 (antibody, mouse IgG1, V domains shown)
VH: B4 VH with S53T, I63S, L64V, G101V, M104L
VL: B4 VL with M4V, V25A, A50T, N53T
notes: mouse IgG1, kappa
B6: mouse monoclonal antibody 8H24 (antibody, mouse IgG2c, V domains shown)
VH: QAYLQQSGTELVRPGASVKMSCKASGYTFTSYSMHWVKQTPRQGLEWIGAIYPGNDATSYNQKFKGKATLTVDKSSSTAYMQLSSLTSEDSAVYFCAREGYYGSSFEAWFASWGQGTLVTVSA
VL: DVLMTQTPLSLPVSLGDQASISCRSSQSIVHSNGNTYLEWYLQKPGQSPKLLIYKVSNRFSGVPDRFSGSGSGTDFTLKISRVEAEDLGVYYCFQGSHVLPTFGGGTKLEIK
notes: mouse IgG2c, kappa; also called mu8H24; m8H24
B7: mouse monoclonal antibody 2P22 (antibody, mouse IgG2b, V domains shown)
VH: EVQLVESGGDLVKPGGSLKLSCAASGFTFSIYGMSWVRQTPDKKLEWVAAISSGGIYTYYPDSVKGRFTISRDNAKNTLYLQMSSLKSADTAMYYCTRNDYDWFAYWGQGTLVTVSA
VL: DIQMTQSPSSLSASLGERVSLTCRASQDIGSSLNWLQQEPDGTIKRLIYATSSLDSGVPKRFSGSRSGSDYSLTISSLESEDFVDYYCLQYASSPYTFGGGTKLEIK
notes: mouse IgG2b, kappa

Legend:
[1] = biological target: T1, extracellular domain (ECD) of …; test: ELISA, Ab binding to hSortilin-ECD
Description: Purified anti-huSortilin mAb binding to huSortilin was characterized by ELISA (ELISA protocol as in Example 1) using a 12 point titration of mAb concentration. mAbs were diluted 2-fold from a starting concentration of 67 nM and then added to ECD-huSortilin-HIS coated plates. Data was analyzed and EC₅₀ (nM) was calculated using graphed Prism. Commercially available goat anti-huSortilin (R&D Biosystems) was used as a positive control. Results are depicted in FIG. 8.

[2] = biological target: T2, human sortilin on the cell surface …; test: cell-based blocking titration (flow cytometry), huSortilin HEK293 cells; blocked ligand 30 nM huPGRN-Biotin
Description: Cells were cultured using standard methods. […] Cells were then washed twice in PBS+2% FBS and incubated for 30 minutes on ice with 50 uL per well 1:200 Steptavidin-APC (BD biosciences) in PBS+2% FBS. Cells were then washed as above and resuspended in 100 uL PBS+2% FBS. Data was acquired using the BD LSR II and analyzed using FlowJo software version 10.6 and Microsoft excel.
The cell-based blocking assay was repeated with the top 12 blocking mAbs using a dose titration from 67 nM to 0.4 nM. Blocking assay was carried out as above. Data was analyzed using FlowJo software version 10.6. and GraphPad Prism software.

[3] = biological target: T1, extracellular domain (ECD) of …; test: blocking ELISA, coated ECD-huSortilin-HIS; blocked ligand huPGRN-Biotin
[4] = biological target: T1, extracellular domain (ECD) of …; test: SPR (Biacore T200), mAb captured by anti-mouse antibody on CM5, Sortilin 0.1-300 nM as analyte, global 1:1 fit
Description: Analysis was performed using a Biacore T200 to compare the binding affinity of murine anti-huSortilin antibodies to recombinant human Sortilin. Anti-mouse antibody was immobilized on sensor chip CM5 (GE Healthcare Life Sciences) via amine coupling, and mouse antibodies (ligand) were captured to a level to ensure a maximum binding of analyte of 50 RU (approximately 100RU of ligand binding). Various concentrations of Sortilin (ranging from 0.1 nM to 300 nM) were passed over the captured ligand at […] in running buffer (HBS+0.05% P-20, 1 mg/mL BSA) for 180-300s association time and 300-900s dissociation time. Regeneration of the chip surface was accomplished by 2 short injections of 10 mM Glycine-HCl at pH 1.7. Data was blank subtracted to both a sensor not containing ligand and 0 nM analyte concentration. Analysis was performed using a global 1:1 fit with Biacore Insight Evaluation software (v2.0) with bulk refractive index set to zero RU.

[5] = biological target: T1, extracellular domain (ECD) of …; test: blocking ELISA, coated ECD-huSortilin-HIS, purified mAb; blocked ligand huPGRN-Biotin
[6] = biological target: T3, sortilin array peptides with the …; test: PEPperMAP conformational (cyclized) peptide microarray, mAb 10-100 ug/mL

Binder | EC50 [1] [nM] | % Max blocking at 11nM mAb [2] [%] | % Blocking at 7.4nM mAb [3] [%] | Kd [4] [nM] | koff [4] [s⁻¹] | kon [4] [M⁻¹ s⁻¹] | IC50 (read off the curve) [5] [nM] | binding result [6]
B1 | 2.7 | 0 | 27 | 2.29 | 0.000411 | 179000 | – | –
B2 | 1.1 | 54 | 76 | 1.59 | – | – | – | –
B3 | 3.8 | 33 | 51 | 1.02 | – | – | ~5 | –
B4 | 0.8 | 48 | 75 | 6.24 | – | – | – | –
B5 | 0.7 | 41 | 76 | 2.81 | – | – | – | –
B6 | 0.4 | 66 | 89 | 4.56 | – | – | – | binds
B7 | 0.8 | 40 | 67 | 2.21 | – | – | – | –

— patent US20230235048A1 (PROTHENA BIOSCIENCES, published 2023)
